B1: TcpB (minor pilin, N-terminally truncated, first 28 residues excluded) (natural protein)
chain: GGELMIKSSNAFDVIELSSQIQRYASLSKINNRTNPILKDNKAKEFKDADLKWLKLENCPTAGDVPTTGNNNDLQDQFIACDADYRKGDLSYFGSQFEFSTYVHPSNPEIQRQIKQVVSYFQYRGMERAFIGDAAGYVISEAKKKGFSAQDYRIVLIEPDRVGYFESNAISYEEFIENPSARENFLLKATKDRTLALAVSLAQTGEIAMQRDGSVAFLEDSELCWDTAAGSAKSCLSVRYDTVGNKTELDLKQIDVVSAKGLSFESDGKTKTPVVSTYETFQDGGRAKTINAIECPTGLNNRFAAVVSSFSTAGQNANFSSESAKDSQGTTQKDGSKGPHALLSGISLNWTLTNKVWDVTASIGIESGILPTSGIDSGSLLRNPKSLSFIAFQWCEN

What all share (experiment): ITC
For one assay, the target named is TcpF (1–10) peptide (Vibrio cholerae, UniProt P0C6Q5 21-30).
Another assay has as its target TcpF (1–20) peptide (Vibrio cholerae, UniProt P0C6Q5 21-40).
Assay [1] has as its target B1.

For orientation: Kd means a measure of binding affinity in units of concentration. A high value points to lower affinity.

B1: the Kd with TcpF (1–10) peptide was determined as 506000 nM; with TcpF (1–20) peptide it was 1700 nM.

B2: TcpF (1–15) peptide (peptide)
peptide: FNDNYSSTSTVYATS
With B2, in assay [1], the Kd came out at 3000 nM.

(Values after paper PMC9565799 (2022).)
